Results from PMC2686266.

Molecular target: the mutant kinases (GST-fused NIK1 kinase domains with single and double amino acid replacements in the A-loop, except T474D)

B1: His-tagged nuclear shuttle protein (NSP) of Cabbage leaf curl virus (CaLCuV), Q96706 1-256 (natural protein)
chain: MYPTKFRRGVSYSQRRFVSRNQSSKRGTFVRRTDGKRRKGPSSKAHDEPKMKLQRIHENQYGPEFVMTHNSALSTFINFPVLGKIEPNRSRSYIKLNRLSFKGTVKIERVHADVNMDGVISKIEGVFSLVIVVDRKPHLSSTGGLHTFDEIFGARIHSHGNLAITPGLKDRYYVLHVLKRVLSVEKDTLMVDLEGSTTISNRRYNCWASFNDLEHDLCNGVYANISKNAILVYYCWMSDAMSKASTFVSYDLDYLG
Question: For B1, which further reduction of the residual autophosphorylation activity of the mutant kinases in vitro in the presence of GST-NSP is on record?
Answer: Its further reduction of the residual autophosphorylation activity of the mutant kinases in vitro in the presence of GST-NSP is 50 to 70%.
